{"source": "patent US11733246B2", "about": "“Compositions, imaging, and therapeutic methods targeting folate receptor 1 (FOLR1)” (Indi Molecular, Inc., priority 2020, dated 2023)", "key": {"in vivo": {"experiment": "in vivo", "conditions": "female, NSG, mouse, iv, total radioactivity", "method": "(§1) Female, 7-week-old NSG mice were housed under pathogen-free conditions. Water and food were provided ad libitum. To create mice with FOLR1+ ovarian xenograft tumors, mice were injected subcutaneously with OVCAR3 cells (1×10^7 cells per mouse) resuspended in 50% Matrigel in PBS into the shoulder region. Tumor growth was monitored by caliper measurements. OVCAR3 is a human ovarian adenocarcinoma known to over-express FOLR1.\n(§2) ^68Ga PET imaging was used to study in vivo biodistribution of heterobiligands in non-tumor bearing (healthy) mice and OVCAR3 tumor bearing mice. 100-200 μCi of [^68Ga]DOTA-labeled heterobiligand was administered intravenously (i.v.) via the tail vein of each mouse. Dynamic PET imaging was performed from 0-1 h, followed by acquisition of static PET images at 2 h and 4 h post-injection. CT scans were acquired for anatomical reference. Imaging was performed on an Inveon microPET/CT small animal scanner. The PET signal was quantitated by three-dimensional ROI analysis and represented as percent injected dose (% ID) vs. time ([…]) for major organs including tumor, liver, heart, lung, bladder, and kidney.\n(§3) Evaluation of a folate-hshta (SEQ ID NO:6) Nterm heterobiligand bearing both an albumin binder and DOTA chelator in PET was a priority, given that DOTA can accommodate both ^68Ga for imaging and ^177Lu for radiotherapy. A 200 μCi dose of ^68Ga-labeled folate-hshta-PEG3-Lys(MPBA)-Lys(DOTA) (SEQ ID NO:6) (compound #2809) was injected i.v. via tail vein in an NSG mouse bearing s.c. human OVCAR3 (FOLR1+) tumor. ^68Ga PET/CT imaging scans were performed at 0-1 h (dynamic), 2 h (static), and 4 h (static). […] The time-course biodistribution of ^68Ga-labeled folate-hshta-PEG3-Lys(MPBA)-Lys(DOTA) (SEQ ID NO:6) (compound #2809) was calculated to quantify the uptake in major organs including the tumor (FIG. 17). […] Larger tumors (490 mm^3) were also evaluated with the ^68Ga-chelated PET probe.\n(§4) Images were captured for compound #1307 at the time points 5 min, 10 min, 15 min, 30 min, 1 h, 2 h, and 4 h. PET/CT images were taken following the injection of 4 female NSG mice with ^68Ga-chelated compound #2809. […] Images for mouse 4 are shown in FIG. 23 (Compounds #1307 and #2809) and FIG. 24 (Compound #1307).\n(§5) Biodistribution was initially evaluated by PET imaging, as the time frame for a significant portion of clearance is roughly similar to the time frame of PET imaging experiments. Indi ^68Ga-7327 was injected via the tail vein into OVCAR3 (FOLR+) tumor implanted female NSG mice once the tumor size reached 200 mm^3, and microPET/CT scans were acquired at 5 min, 10 min, 15 min, 30 min, 1 h, 2 h, and 4 h post-injection. PET images were corrected for CT-based photon attenuation, detector normalization and radioisotope decay and converted to units of percent injected dose per cc (% ID/cc)."}, "[1]": {"test_system": "OVCAR3 (FOLR1+) tumor bearing NSG mice", "experiment": "in vivo", "conditions": "mouse", "method": "as §1, §2, §3, §4, §5"}, "OVCAR3 xenografts": {"test_system": "OVCAR3 xenografts", "experiment": "177Lu FOLR1 radioligand therapy in OVCAR3 xenograft model", "type": "in vivo, mouse", "method": "Water and food were provided ad libitum. […] Tumor growth was monitored by caliper measurements.\nOVCAR3 tumor bearing mice were used to study FOLR1-directed radioligand therapy (RLT) for treatment of ovarian cancer. Animals were administered a single dose of heterobiligand (vehicle control) or 111, 37, 18.5, 9.25, or 3.7 MBq [^177Lu]DOTA-labeled heterobiligand. Mice received the dose intravenously (i.v.) via the tail vein. To monitor the effect of the RLT, tumor size measurements were taken twice weekly and body weights were measured.\nThe engraftment was allowed to expand until palpable tumor sizes ranging in size from 218-384 mm^3 were detected. […] These observed effects were consistant with radiation overdosing. […] The best response was observed using 9.25 MBq Lu-177 Heterobiligand (compound #2809).\nSingle dose treatments at 18.5 MBq/nmol specific activity. OVCAR3 mouse model was used. 10^7 cell tumors were implanted in the mice one month before administration of ^177Lu-#6305. Five mice each were administered Cold #6305, 9.25 MBq Lu177-#6305, and 14.8 MBq Lu177-#6305, and two mice were administered 29.6 MBq Lu177-#6305. Tumor growth and body weight were then monitored.\nFemale NSG mice were implanted subcutaneously with OVCAR3 cells. Once tumors reached volumes of 200 mm^3, the animals were treated with 177-Lu 7327. Three treatment arms of 9.25 MBq, 14.8 MBq, and 29.6 MBq were studied.\nFemale NSG mice were implanted subcutaneously with human OVCAR3 (FOLR+) ovarian cancer cells. Once tumors reached volumes of 200 mm^3, the animals were treated with Indi ^177Lu-7327. One treatment arm of 74 MBq and a control group of 0 MBq were studied (FIGS. 41 and 38A). […] The second dose was administered 21 days following the first dose. Statistically significant differential between treated and control was reached 24 days post-injection (three days following the second dose) for the 74 MBq arm. P values (* for p≤0.05, ** for p≤0.01) were determined by ordinary one-way ANOVA with Tukey's multiple comparisons test."}, "[2]": {"conditions": "mouse, in vivo", "method": "At endpoint, mice were sacrificed and plasma and tissues (tumor, kidney, liver, lung, muscle) were collected. Plasma samples were assayed for urea and creatinine biomarkers indicative of nephrotoxicity. Tissue samples were fixed in 10% buffered formalin, transferred to 70% ethanol, and embedded in paraffin for immunohistochemistry.\nThe heterobiligand dosed in these studies is Folate-hshta-PEG3-Lys(MPBA)-Lys(DOTA) (Compound #2809; SEQ ID NO:6)) labeled with ^177Lu. Plasma samples taken from tumor-bearing mice (at each dose) were assayed for biomarkers indicative of nephrotoxicity. These samples were compared to plasma taken from normal mice. Elevated urea levels in plasma could indicate kidney damage. Endogenous urea is converted to ammonia and carbon dioxide by the addition of urease. Berthelot's reagent reacts with the dissolved ammonia. The resulting green coloration can be used to back-calculate the amount of urea present in the original plasma sample.\nMouse plasma samples (five mice each from the 0 MBq control group, 3.7 MBq group, and 9.25 MBq group) taken at endpoint and normal mouse plasma were evaluated in urea assays to gain information on renal function. […]\nIn order to understand the toxicity-limiting tissues and organs, plasma was collected from the therapy studies and analyzed for blood urea nitrogen (BUN) and creatinine. […]"}, "OVCAR3 FOLR1+ cells [3]": {"test_system": "OVCAR3 FOLR1+ cells", "experiment": "Flow cytometry binding to FOLR1 (+) cells", "type": "cell-based, human", "conditions": "OVCAR3 vs PC-3, flow cytometry", "method": "Both the kyeet (SEQ ID NO:9) and hshta (SEQ ID NO:6)-derived biligands were tested by flow cytometry for binding to FOLR1 (+) and FOLR1 (−) cell lines (FIGS. 6 and 7). The human ovarian adenocarcinoma-derived cell line OVCAR3 has robust FOLR1 expression and was selected as the FOLR1 (+) cell line. The human prostate adenocarcinoma-derived cell line PC-3 was selected as a FOLR1 (−) cell line.\nCompetition at the cellular level was also probed.\nIncreasing the serum-bound fraction of the peptide may decrease first pass removal of the heterobiligand, and drive compound retention of tumor over kidney. Constructs bearing the known albumin binder 4-methylphenyl butyric acid (4-MPBA) were synthesized. These compounds were evaluated in vitro to verify binding fidelity to FOLR1. The modified heterobiligands were incubated at 400 nM with OVCAR3 and PC-3 cells for 20 minutes at 37° C. in complete media containing 20% FBS. They both bind to OVCAR3 FOLR1+ cells with similar binding affinities as the original heterobiligand studied (FIG. 14). […] Similar activity of these heterobiligands is anticipated in vivo."}, "OVCAR3 FOLR1+ cells [4]": {"test_system": "OVCAR3 FOLR1+ cells", "experiment": "Flow cytometry binding to FOLR1 (+) cells", "type": "cell-based, human", "conditions": "40 nM of the test article"}, "human serum albumin": {"molecular_target": "human serum albumin (Homo sapiens, UniProt P02768)", "conditions": "read-out: affinity for human serum albumin; cited from earlier work"}}, "note": "“And” between values parts separate entries of the source, which are not always exact repeats. Equal entries are not always repeated. Numbered stars: 1 amine (or outer) side, 2 acyl side, 3 side chain; on linkers, the order of the positions; unused ones are H or OH. Bridge positions count the residues as written; N and C are the ends. Square brackets hold non-standard residues; d marks the D form. Triazole bridges read from a SMILES are 1,4-linked. Peptide text beside a SMILES is read from it. * marks the point of attachment. DOTA = O=C(O)CN1CCN(CC(=O)O)CCN(CC(=O)*)CCN(CC(=O)O)CC1; Pteroyl = Nc1nc2ncc(CNc3ccc(C(=O)*)cc3)nc2c(=O)[nH]1; Butanoyl(4-(4-MePh)) = Cc1ccc(CCCC(=O)*)cc1; Lys(N3) = [N-]=[N+]=NCCCC[C@H](N)C(=O)O; γGlu = O=C(O)[C@H](CCC(=O)[*:2])N[*:1]; AEEEA = NCCOCCOCCOCC(=O)O; Pra = C#CC[C@H](N)C(=O)O", "data": [{"compound": "C[C@H](O)[C@H]1NC(=O)[C@@H](Cc2cnc[nH]2)NC(=O)[C@@H](CO)NC(=O)[C@@H](Cc2cnc[nH]2)NC(=O)[C@@H](NC(=O)CC[C@H](NC(=O)c2ccc(NCc3cnc4nc(N)[nH]c(=O)c4n3)cc2)C(=O)O)Cc2cn(nn2)CCCC[C@@H](C(=O)NCC(=O)N[C@@H](Cc2ccccc2)C(=O)N[C@@H](CCCCNC(=O)CN2CCN(CC(=O)O)CCN(CC(=O)O)CCN(CC(=O)O)CC2)C(=O)O)NC(=O)[C@@H](C)NC1=O", "note": "[Indi ^68Ga-7327, metal not drawn] ({Pteroyl-γGlu}-[Pra][dH][dS][dH][dT][dA][Lys(N3)]GFK(DOTA)-OH; triazole 1-7)", "values": [{"measurement": "tissue uptake per volume at 4 h", "setting": "in vivo; accumulation in the tumor", "result": 1.55, "unit": "%ID/mL"}, {"measurement": "kidney uptake", "setting": "[1]", "result": "significant reduction in kidney uptake"}]}, {"compound": "Cc1ccc(CCCC(=O)NCCCC[C@H](NC(=O)COCCOCCOCCNC(=O)[C@@H]2CCCCn3cc(nn3)C[C@H](NC(=O)CC[C@H](NC(=O)c3ccc(NCc4cnc5nc(N)[nH]c(=O)c5n4)cc3)C(=O)O)C(=O)N[C@H](Cc3c[nH]cn3)C(=O)N[C@H](CO)C(=O)N[C@H](Cc3c[nH]cn3)C(=O)N[C@H]([C@H](C)O)C(=O)N[C@H](C)C(=O)N2)C(=O)N[C@@H](CCCCNC(=O)CN2CCN(CC(=O)O)CCN(CC(=O)O)CCN(CC(=O)O)CC2)C(N)=O)cc1", "note": "[^68Ga-chelated compound #2809, metal not drawn] ({Pteroyl-γGlu}-[Pra][dH][dS][dH][dT][dA][Lys(N3)][AEEEA]K(Butanoyl(4-(4-MePh)))K(DOTA)-NH2; triazole 1-7)", "values": [{"measurement": "tissue uptake per volume at 4 h", "setting": "in vivo; 200 uCi, dose accumulation in the tumor", "result": "~1.4", "unit": "%ID/mL"}]}, {"compound": "Cc1ccc(CCCC(=O)NCCCC[C@H](NC(=O)COCCOCCOCCNC(=O)[C@@H]2CCCCn3cc(nn3)C[C@H](NC(=O)CC[C@H](NC(=O)c3ccc(NCc4cnc5nc(N)[nH]c(=O)c5n4)cc3)C(=O)O)C(=O)N[C@H](Cc3c[nH]cn3)C(=O)N[C@H](CO)C(=O)N[C@H](Cc3c[nH]cn3)C(=O)N[C@H]([C@H](C)O)C(=O)N[C@H](C)C(=O)N2)C(=O)N[C@@H](CCCCNC(=O)CN2CCN(CC(=O)O)CCN(CC(=O)O)CCN(CC(=O)O)CC2)C(N)=O)cc1", "note": "[^177Lu-#2809, metal not drawn] ({Pteroyl-γGlu}-[Pra][dH][dS][dH][dT][dA][Lys(N3)][AEEEA]K(Butanoyl(4-(4-MePh)))K(DOTA)-NH2; triazole 1-7)", "values": [{"measurement": "Comments (deaths / survival)", "setting": "OVCAR3 xenografts; ^177Lu dose 0 (peptide alone), 3 mice", "result": "Sacrificed on day 24"}, {"measurement": "Comments (deaths / survival)", "setting": "OVCAR3 xenografts; ^177Lu dose 0.1 mCi (3.7 MBq), 2 mice", "result": "Sacrificed on day 24"}, {"measurement": "Comments (deaths / survival)", "setting": "OVCAR3 xenografts; ^177Lu dose 0.25 mCi (9.25 MBq), 2 mice", "result": "Sacrificed on day 24"}, {"measurement": "Comments (deaths / survival)", "setting": "OVCAR3 xenografts; ^177Lu dose 0.5 mCi (18.5 MBq), 2 mice, listed as DOTA-Heterobiligand Albumin binder conjugate", "result": "1 mouse died on day 10 and 1 mouse died on day 13"}, {"measurement": "Comments (deaths / survival)", "setting": "OVCAR3 xenografts; ^177Lu dose 1 mCi (37 MBq), 2 mice", "result": 2, "unit": "mice died on day 10"}, {"measurement": "Comments (deaths / survival)", "setting": "OVCAR3 xenografts; ^177Lu dose 3 mCi (111 MBq), 3 mice, listed as DOTA-Heterobiligand Albumin binder conjugate", "result": "1 mouse died on day 5 and 2 mice died on day 4"}, {"measurement": "BUN level relative to normal mice", "setting": "[2]", "result": 1.5, "unit": "times"}]}, {"compound": "C[C@H](O)[C@H]1NC(=O)[C@@H](CCC(=O)O)NC(=O)[C@@H](CCC(=O)O)NC(=O)[C@@H](Cc2ccc(O)cc2)NC(=O)[C@@H](CCCCN)NC(=O)[C@@H](NC(=O)[C@H](Cc2cn(CCOCCOCCOCCNC(=O)CC[C@H](NC(=O)c3ccc(NCc4cnc5nc(N)[nH]c(=O)c5n4)cc3)C(=O)O)nn2)NC(=O)CCOCCOCCOCCOCCOCCOCCOCCOCCOCCOCCNC(=O)CCOCCOCCOCCOCCOCCOCCOCCOCCOCCOCCNC(=O)CCCC[C@@H]2SC[C@@H]3NC(=O)N[C@@H]32)Cc2cn(nn2)CCCC[C@@H](C(N)=O)NC1=O", "note": "[folate-kyeet heterobiligand]", "values": [{"measurement": "selectivity for FOLR1 (+) cells over FOLR1 (−) cells", "setting": "OVCAR3 FOLR1+ cells [3]", "result": "high selectivity for FOLR1 (+) cells"}, {"measurement": "selectivity for FOLR1 (+) cells", "setting": "OVCAR3 FOLR1+ cells [4]", "result": "Virtually complete selectivity"}]}, {"compound": "GI48-GA: albumin-binding domain, fragment of protein G from Streptococcus strain GI48 (SEQ ID NO:33) (LAEAKVLANRELDKYGVSDYYKNLINNAKTVEGVKALIDEILAA)", "values": [{"measurement": "Kd", "setting": "human serum albumin", "result": 1, "unit": "nM"}]}]}
